{
  "source": "the DeepSol protein solubility set",
  "test": "soluble on expression in E. coli; label from the status in PepcDB or PDB records",
  "data": [
    {"sequence": "MRREILVAAAILLDSRGRVLLVGNDWGRRGRVRYTLPGGTVEPGETAVEALVREVREETGLRVRSVEHLAYVIQVEDRRKNERTLAMAFRATYEGLLNPRDPDGHIVEARFFTLEEVEERLKGHLPLLEPLRAYLRGERGRFYAYAGWHAPGVVV", "values": [
      {"measurement": "soluble on expression in E. coli", "result": "soluble"}
    ]},
    {"sequence": "MSQQVTMSFSVVPQAKTKDVYSVVDKAIEVVQQSGVRYEVGAMETTLEGELDVLLDVVKRAQQACVDAGAEEVITSIKIHYRPSTGVTIDEKVWKYRDEYAKPEAI", "values": [
      {"measurement": "soluble on expression in E. coli", "result": "soluble"}
    ]},
    {"sequence": "MGSDKIHHHHHHMEKFGLKALVPLLKLEDKELSSTYDHSMTLGADLSSMLYSLGIPRDSQDHRVLDTFQSPWAETSRSEVEPRFFTPESFTNIPGVLQSTVTPPCFNSIQNDQQRVALFQDETLFFLFYKHPGTVIQELTYLELRKRNWRYHKTLKAWLTKDPMMEPIVSADGLSERGSYVFFDPQRWEKCQRDFLLFYNAIM", "values": [
      {"measurement": "soluble on expression in E. coli", "result": "not soluble"}
    ]},
    {"sequence": "MSLTYLIKVLELFSGVGSFSISLNTLGIEHEIVGFSETRKTATQLFCKLHNKKESENLGDVRNVSAKDLDVDLLVFGSPCQSFTRAGKQGGGLKGSDTRSALMWEAVRIMEECKPKWIVWENVPDAISRKNMPNFQNYMDELDSLNYNTYYKVLNAHELGSAQKRKRLFSISIRKDIDNGKFEFLDLTREPKHLETYLENNDEGHHHHHH", "values": [
      {"measurement": "soluble on expression in E. coli", "result": "soluble"}
    ]},
    {"sequence": "SLHEFGITQNIVAIVTEHAKGAKVQRVLLEIGKLSAIMPDAIRFCFDICTQGTVLEGATLEILEIPGLGRCRQCGGEIYLDKPFGICNCGSVQLDLITGEELKIKEIEIEELCV", "values": [
      {"measurement": "soluble on expression in E. coli", "result": "soluble"}
    ]},
    {"sequence": "MGSDKIHHHHHHMNAAQAGLYVDQLTVTWRNGHTALRDASFSVPRGSIAALVGVNGSGKSTLFKALMGFVRVGHGEIAILGQPVNRALRQNLVAYVPQSEEMDWSFPVLVEDVVMMGRYGHMGWLRRAKPRDREIVDAALARVGMSEFRHRQIGELSGGQKKRVFLARAIAQQGQVILLDEPFTGVDVQTEARIISLLRELRDEGCTMLVSTHNLGSVSEFCDYTVMVKGTVLASGPTETTFTAENLERAFSGVLRHVALTGGEAQVITDDERPFISRRAAGGPR", "values": [
      {"measurement": "soluble on expression in E. coli", "result": "not soluble"}
    ]},
    {"sequence": "DYKYVLKGHEDIRQDSLVMQLFGLVNTLLKNDSECFKRHLDIQQYPAIPLSPKSGLLGWVPNSDTFHVLIREHRDAKKIPLNIEHWVMLQMAPDYENLTLLQKIEVFTYALDNTKGQDLYKILWLKSRSSETWLERRTTYTRSLAVMSMTGYILGLGDRHPSNLMLDRITGKVIHIDFGDCFEAAILREKYPEKVPFRLTRMLTYAMEVSGIEGSFRITCENVMRVLRDNKESLMAILEAFALDPLIHWGFD", "values": [
      {"measurement": "soluble on expression in E. coli", "result": "not soluble"}
    ]},
    {"sequence": "MICTLLVPVLGSFELVGQSIKDALAEYTLTDIMNNNQFAGIEFGEAEDGFPAFRFLQTADVKSPYRMLLPEKLYEFAILITFRQSSLKGGYLFSVVNPLDTVVQLGVHLSPVVKNSYNVSLVYTQADQNIGRKLASFGVAHVPDKWNSIALQVLSDKVSFYYDCELRNTTLVTREPIELVFDSASTLYIGQAGSIIGGKFEVSSGGGQFDYAFDLQSIVGELEHHHHHH", "values": [
      {"measurement": "soluble on expression in E. coli", "result": "not soluble"}
    ]},
    {"sequence": "MSFRGTVKWFSKDKGYGFITREDTNADVFVHFTDIQMEGFKTLQKGQKVEFDVVEDTKGPRAKNVRVLGE", "values": [
      {"measurement": "soluble on expression in E. coli", "result": "soluble"}
    ]},
    {"sequence": "MGSDKIHHHHHHMAHADIFNAIYTNKVWGNGSGEGSAEELTRDYRKFLHNFLRANHIRSVVDLGCGDWQFSRHMDWSGIEYCGIDVSSVVLETTRNFSAPNIRFQEMNGIEGELPSADLLICKDVVQHWSNTDILQLFPKLPRFRLALITNAFHPAITENQDIVTGDFRPLNLLAKPFDIKGSYIYCFMAGEPKGVFLWSRGD", "values": [
      {"measurement": "soluble on expression in E. coli", "result": "not soluble"}
    ]},
    {"sequence": "GMNNIQAIRKKVETQIDDLQNKTDEIAEFNQAKVLDAFQENKVSDFHFHPSTGYGYDDEGRDTLERVYATVFKTEAALVRPQIISGTHAISTVLFGILRPDDELLYITGQPYDTLEEIVGIRKQGQGSLKDFHIGYSSVPLLENGDVDFPRIAKKMTPKTKMIGIQRSRGYADRPSFTIEKIKEMIVFVKNINPEVIVFVDNCYGEFVEYQEPPEVGADIIAGSLIKNPGGGLAKTGGYIAGKEALVDLCGYRLTTPGIGREAGASLYSLLEMYQGFFLAPHVTAQAIKGARFTAAMLAEFGVEADPVWDAPRTDLIQSVSFHNKEKMVAFAQAIQAASPVNAHVLPIGAYMPGYEDDVIMAAGTFIQGASLELTADGPIREPYQLYVQGGLTYEHIKIAVTRAIQKIV", "values": [
      {"measurement": "soluble on expression in E. coli", "result": "soluble"}
    ]},
    {"sequence": "MGLHRLIYLSCATDGLSYPDLRDIMAKSEVNNLRDGITGMLCYGNGMFLQTLEGDRQKVSETYARILKDPRHHSAEIVEFKAIEERTFINWSMRLVQLGEMDSDTIRRLRLKYSPAATFQPRSMTAEQCFRFLKELYDMSQGS", "values": [
      {"measurement": "soluble on expression in E. coli", "result": "soluble"}
    ]},
    {"sequence": "MGSDKIHHHHHHMQSIPHVDMRRYQNDFDAFTQDVGNGYEKYGFIALTQHGVDTALIERALDTCRELFALPEDVKKQYHRPGQGGARGYTPFGTEVAKDAKHVDLKEFWHVGREVEGEPAYPQLLPNVWPQELPKFKDDMLAIYAALDNLGNQVLEALSVYLGQPKDFFRNKVNNGNSILRPLHYPPIIDEDTPSVRAGAHEDINVLTLLVGSREPGLEVLAKDGTWVPVTIIEGAIICNVGDMLQRLTNHVLPSTTHRVVNPPAPFNEKSRYSIPFFLHFNPDVMITPLESCISDENPQRDEPITADDYLMQRLREIGLIKD", "values": [
      {"measurement": "soluble on expression in E. coli", "result": "not soluble"}
    ]},
    {"sequence": "MGSDKIHHHHHHMSLDLSTPLQLIGRSVEFQRVVEVLAQDGDLLITGVPGSGRRTLVRWGVTEVRAIALDIDCIRATDGERFLQLLTEAINQNWQAEKIQSWLDKNAKEFFTFHPETKLKLLRSLSQKQIWQAFELLLELPQIMAVDLNKRLVLILQSFPHIRSWDRNGLWEISFRRKIKEHTHVSYVLIATIAETGNYSDENNYPLETIQLPPLNRDVLAVWAREILHGSKLTFDSRSKALQLFLDAVQGHIGDAMAIIRRLQTLCVPDSLVTENDVQQAIEGLLKDLSMTYESLLMLLPANQVHLLECLALDPTEKPQSKDYIQKHGLSRGGSLQGALTGLHHKGLIYGAEQGYLLAMPLLALWLRQRLS", "values": [
      {"measurement": "soluble on expression in E. coli", "result": "not soluble"}
    ]},
    {"sequence": "MGSRENLYFQGLEHHHHHHHMKIISKMLVGALALAVTNVYAAELMTKAEFEKVESQYEKIGDISTSNEMSTADAKEDLIKKADEKGADVLVLTSGQTDNKIHGTANIYKKK", "values": [
      {"measurement": "soluble on expression in E. coli", "result": "soluble"}
    ]},
    {"sequence": "MSNALRGGPDFLLSVDSPVNIPSAFWSTLSPMTPRPRLLLTAALLALVPAAQAADLRLYPTLGEVTSQPLKVEGGAVTVPFPKADWAWVVPGSVRLLGVPVTRTRVTPGVNVLRAHEGEAVRVLRGGLNLKGTLADAEALLVQLDSGEYLTVRPDELAFSTRPPSSRDVADVKVTFETGGAGSANLLYQTRALSWKPRYELDASGDAATLRALAEIRNAGDQSFSGSTDLYAGDVRLVPENVPMPTLRWWENSPRPPAARAMPLSPRTALSRLSARLEHHHHHH", "values": [
      {"measurement": "soluble on expression in E. coli", "result": "not soluble"}
    ]},
    {"sequence": "TLAYKEGFYYKPRIDYELLEKYGEGLIALTACLKGVPTYYASINEVKKAEEWVKKFKDIFGDDLYLELQANNIPEQEVANRNLIEIAKKYDVKLIATQDAHYLNPE", "values": [
      {"measurement": "soluble on expression in E. coli", "result": "soluble"}
    ]},
    {"sequence": "MGSDKIHHHHHHMSDQTRQPNSSSGLSQLLTGRLRSKLAAGVTHLTSGSGPTLDYSSPPGDPGLFGPDSVCWKVHADFTSMMTGGISALLLQALHPLALAGVWDHSAFRTDILGRLRRTATFIAGTTYGNRHDALALVERVKRIHLGVSGVAPDGRPYRASEPALLTWVHVAEVSSFMTAHLRYVNPLLPVAAQDQYFAETARIAEMLGASDIPRSRAGIDAYLLAMQPELVASERTRELVRILMNAPAPSASMRPAGVLMLNAGVDLLPDWAQAMLGFQRYAALRRAVTRPGVRLVAPVIRWALVNGVSKRARRRVAAGVREPE", "values": [
      {"measurement": "soluble on expression in E. coli", "result": "not soluble"}
    ]},
    {"sequence": "MGSDKIHHHHHHMRKDEIMHIVSCADDNYARHLGGMFVSLLTNMDQEREVKLYVIDGGIKPDNKKRLEETTLKFGVPIEFLEVDTNMYEHAVESSHITKAAYYRISIPDLIKDESIKRMIYIDCDALVLEDISKLWDLDIAPYTVAAVEDAGQHERLKEMNVTDTGKYFNSGIMIIDFESWRKQNITEKVINFINEHPDEDFLVLHDQDALNAILYDQWYELHPRWNAQTYIMLKLKTPSTLLGRKQYNETRENPAIVHFCGGEKPWNSNTKHPYRDEYFHYMSYTKWNTIGNPAINQ", "values": [
      {"measurement": "soluble on expression in E. coli", "result": "not soluble"}
    ]}
  ]
}
